Laboratory results taken from paper PMC9720954.

Assays:
Aβ1-40 monomers = Aβ1-40 monomers (UniProt P05067); test: ELISA; sandwich ELISA; 1 nM Aβ1-40 monomers or 1 nM Aβ1-42 aggregates held by coated rabbit polyclonal antibodies (C-terminal of Aβ, or Aβ1-42); serial dilutions of the recombinant proteins in 0.1% BSA, 0.05% Tween-20 in PBS, 2 h at RT; goat anti-mouse HRP
Aβ1-42 aggregates = Aβ1-42 aggregates (UniProt P05067); test: as above
[1] = molecular target: mouse TfR protein (mouse) (UniProt Q62351)

Chain of Aβ1-40 monomers (P05067 672-711): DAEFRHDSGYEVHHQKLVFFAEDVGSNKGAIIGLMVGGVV
Chain of Aβ1-42 aggregates (P05067 672-713): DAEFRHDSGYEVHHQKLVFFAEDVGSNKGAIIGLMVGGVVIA

- fold weaker binding than the 3D6 antibody control (Aβ1-40 monomers): 50 fold
- fold weaker binding than the 3D6 antibody control (Aβ1-42 aggregates): 100 fold
- brain uptake (%ID per gram brain tissue) 2 h after intravenous injection of the 125I-labelled protein (0.05 mg/kg) in tg-ArcSwe mice, against sNEP without scFv8D3 [1]: 20 fold
Substance: sNEP-scFc-scFv8D3 (Fc fusion)
